Target: human catalytic domain of MMP-14 (human)

Sequence of human N-terminal domain of tissue inhibitor of metalloproteinase-2 (domain or fragment) (P16035 27-220): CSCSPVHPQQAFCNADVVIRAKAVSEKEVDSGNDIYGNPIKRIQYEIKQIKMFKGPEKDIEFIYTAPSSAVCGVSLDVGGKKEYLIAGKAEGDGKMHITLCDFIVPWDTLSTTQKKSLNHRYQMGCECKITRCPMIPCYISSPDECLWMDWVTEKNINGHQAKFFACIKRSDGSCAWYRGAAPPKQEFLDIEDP

With “human N-terminal domain of tissue inhibitor of metalloproteinase-2 (domain or fragment)” the IC50 of inhibition of hydrolysis of the FRET peptide substrate M-2350 (1 nM human cdMMP-14, 1 μM substrate) was 3 nM.

Source: publication PMC6047671
